One protein from publication PMC5458393, “Crystal structure of N-acetylmannosamine kinase from Fusobacterium nucleatum” (Acta Crystallographica. Section F, Structural Biology …, 2017) can be followed below.

The data set concerns the molecule itself. The data set can be described thus: crystal structure; apo FnNanK at 14 mg/ml; sitting-drop vapour diffusion, 293 K; 0.2 M lithium sulfate, 0.1 M Tris-HCl pH 8.5, 30% PEG 4000; 2.23 A; one homodimer in the asymmetric unit.

B1: Fusobacterium nucleatum N-acetylmannosamine kinase (enzyme, F. nucleatum)
chain: ITSLYKKAGFMNILAIDIGGTMIKYGLVSFDGKILSTDKIKTEASKGLNNILNKIDNIFKRYKENNPVGIAVSGTGQINGMIGKVIGGNPIIPNWIGTNLVKILEEKYNLPIVLENDVNCVALGEKWVGAGKDLSNFICLTIGTGIGGGILLNNQLFRGENFVAGEFGHILIKKGEFEQFASTTALIRLVKERTGKTLNGKEIFDLEKKEILEYQEIISEWIENLTDGLSSIIYCFNPANIILGGGVIEQGEPLINRIKNSLFKKIGPQFKEKLNITQAKLGNNAGMIGASYLLLEKINKR
notes: N-acetylmannosamine kinase (NanK; EC 2.7.1.60) of Fusobacterium nucleatum, synthetic gene; primers run from the start codon to the stop codon; The tag was not removed; also called FnNanK; F. nucleatum NanK; source: E. coli BL21(DE3), purified (HisTrap FF, Superdex 200 size-exclusion); not shown: His6, N-terminal, kept
A word on the stoichiometry N: it is a count of units in the complex or per binding partner. Regarding B1, the “stoichiometry N” value came out at 2.
